Measurements published in patent US20250320288A1, “METHOD OF TREATING VITILIGO WITH INTERFERON-GAMMA ANTIBODY” (Elixiron Immunotherapeutics (Hong Kong), priority 2022, published 2025).
Entries after “also recorded” stand apart in the source; their conditions may differ.

B1: CXCL11: IFN-γ downstream cytokine added to melanocytes (protein, UniProt O14625 22-94, looked up)
C-X-C motif chemokine 11: FPMFKRGRCLCIGPGVKAVKVADIEKASIMYPSNNCDKIEVIITLKENKGQRCLNPKSKQARLIIKKVERKNF
B2: CXCL9: IFN-γ downstream cytokine added to melanocytes (protein, UniProt Q07325 23-125, looked up)
C-X-C motif chemokine 9: TPVVRKGRCSCISTNQGTIHLQSLKDLKQFAPSPSCEKIEIIATLKNGVQTCLNPDSADVKELIKKWEKQVSQKKKQKNGKKHQKKKVLKVRKSQRSRQKKTT
B3: IFN-γ: recombinant human interferon gamma, cytokine added to melanocytes (protein, UniProt P01579 24-161, looked up)
Interferon gamma: QDPYVKEAENLKKYFNAGHSDVADNGTLFLGILKNWKEESDRKIMQSQIVSFYFKLFKNFKDDQSIQKSVETIKEDMNVKFFNSNKKKRDDFEKLTNYSVTDLNVQRKAIHELIQVMAELSPAAKTGKRKRSQMLFRG

Columns and labels:
primary melanocytes [1] = test: Melanocyte cell viability after IFN-γ, chemokines, cell death inhibitors or 2A6Q, Day 2 and Day 7; type: cell-based, human; conditions: day 7 of treatment
Protocol: To determine cell viability of melanocyte after treatment with IFN-γ, CXCL9, CXCL10, CXCL11, at Day 2, and Day 7, the cells were collected and seeded into 96-well plates. After adhesion, cells were treated with IFN-γ (0, 10, 100 ng/ml) with different compounds: 2A6Q, CXCL9, CXCL10, CXCL11, ROS scavenger (NAC), necroptosis inhibitor (NEC-1), pyroptosis inhibitor (VX-765), apoptosis inhibitor (QVD-OPH), Ferroptosis inhibitor (Liproxstaitin-1, Ferrostatin-1, DFO). Cell viability was measured using a CellTiter-Glo luminescent cell viability assay kit (Promega) according to the manufacturer's protocol. The […] of the final reaction product was measured using a luminometer (SpectraMax® iD3 Multi-Mode Microplate Reader (Molecular Devices). After calculation, the viability of control cells was 100%, and all others were normalized to control and shown as relative cell viability (%). Treatment dosage N-acetylcysteine (NAC; 0.05 mM, 1 mM), Necrostatin-1 (NEC-1; 20 μM, 2 μM), Belnacasan (VX-765; 50 μg/mL, 5 μg/mL), Quinoline-Val Asp-Difluorophenoxymethylketone (QVD-OPH; 10 μM, 2 μM), Liproxstaitin-1 (10 μM, 5 μM, 1 μM, 0.05 μM), Ferrostatin-1 (5 μM, 1 μM), Deferoxamine (DFO; 10 μM, […], 1 μM, 0.05 μM), 2A6Q (10 μg/mL), CXCL9 (10 ng/mL, 10 pg/mL), CXCL10 (10 ng/ml, 10 pg/mL), CXCL11(10 ng/mL, 10 pg/mL).

melanocytes [2] = test: Melanocyte apoptosis, Annexin V / 7AAD flow cytometry; type: cell-based, human; conditions: IFN-γ 10 or 100 ng/ml, 48 hrs
Protocol: Materials and methods: Melanocyte cell apoptosis was detected with Annexin V (BD, 550474) and 7AAD (1 mg/mL, Sigma A9400-1 MG). The cells were detached and resuspended with […] binding buffer (BD, 556454) containing Annexin V and 7AAD for 15 min at room temperature in the dark. Before analysis, cells were added to a […] binding buffer and immediately analyzed a on a flow cytometer (Verse BD).

primary melanocytes [3] = test: Cell morphology assay in melanocytes; type: cell-based, human
melanocytes [4] = test: Lipid peroxidation in melanocytes (BODIPY 581/591 C11); type: cell-based, human; conditions: dose-dependent, Day 6
Protocol: For lipid peroxidation examination, melanocyte cells were seeded in a 6-well plate and treated with IFN-γ the next day. Melanocytes were washed with PBS and incubated with Hanks balanced salt solution (HBSS, Gibco) containing 5 μM BODIPY 581/591 C11 (Invitrogen, D3861) and incubated for 15 minutes at 37° C. in a tissue culture incubator. The cells were resuspended with fresh HBSS and examined with flow cytometry; the data were analyzed with FlowJo.

[5] = test system: human primary melanocytes (HEMn-DP); test: IFN-γ inhibition of melanocyte melanogenesis (melanin content, absorbance 470 nm); type: cell-based
Protocol: Materials and methods: To examine the dose-dependency of IFN-γ inhibition of HEMn-DP cell melanogenesis, HEMn-DP cells were seeded into a 24-well plate at a concentration of 200,000 cells/well in 1 mL assay medium (M254 supplemented with 1× HMGS, 10 ng/mL PMA plus Penicillin-Streptomycin) with serial dilutions of IFN-γ, followed by incubation at 37° C. for 7 days. The cell assay medium was replaced by fresh medium with serially titrated concentrations of IFN-γ on day 3 and day 5. On day 7, cells were first washed with PBS twice, lysed in 250 μL of 1N NaOH/10% DMSO solution, then incubated at 80° C. for 1 hr. After lysis, each lysate was transfer to 96 well plate, and absorbance of melanin was then measured at […]. The relative melanin quantity was normalized with cell viability of each sample which was measured by CellTiter-Glo kit, and data were analyzed using nonlinear regression curve fit using GraphPad Prism7. To determine the potency of EI-001, HEMn-DP cells were seeded as previously described, and IFN-γ pre-incubated with indicated amounts of EI-001 for 25 min in 1 mL of assay medium. After incubation, the mixture was added to each well (final IFN-γ concentration is 20 ng/ml). Melanin content of melanocytes was determined as previously described.

MITF = test: Melanin regulators in melanocytes (RNA sequencing, MITF immunoblot); type: cell-based, human
Excerpt: (§1) Total RNA was extracted from melanocytes with an RNA purification kit (Zymo Research, r2050). After RNA samples were extracted from primary melanocytes and melanocytes cell line (Gibco), the samples were sent to Biotools Co., Ltd Taiwan for RNA sequence. The RNA quality was examined by Agilent Technologies 2100 Bio-analyzer with an RNA integrity value greater than 8. After rRNA depletion (Epicenter), RNA fragmentation, and library preparation (Illumina), the constructed libraries were then performed 150 bp paired-end sequencing by an Illumina NovaSeq6000 sequencer. The results from each sample were aligned to the GRCh38 genome by the HISAT2 software and analyzed by Biotools Co., Ltd Taiwan.
(§2) Cells were washed in PBS and lysed in RIPA lysis buffer with proteases inhibitor and Phenylmethanesulfonyl fluoride (PMSF; Sigma-Aldrich, P7626). The total cell lysates were sonicated and centrifuged at 4° C., 13000 rpm for 30 min. Protein concentration was quantified using the Bradford assay. The total cell lysates were separated by SDS-PAGE and transferred to a PVDF membrane. The membrane was blocked with 5% BSA or 5% milk in TBST for 1 hour at room temperature and incubated with primary antibodies overnight at 4° C. and HRP-conjugated secondary antibodies for hour at room temperature. The protein was visualized by Thermo ibright1500. Primary antibodies were follows: anti-human SLC7A11 (CST, 12691), anti-human SLC3A2 (CST, 13180), anti-IRF1 (CST, 8478), anti-MITF (CST, 12590), and anti-GAPDH (Abcam, ab8245).

melanocytes [6] = test: Intracellular ROS in melanocytes (CM-H2DCFDA); type: cell-based, human; conditions: 10 and 100 ng/mL IFN-γ, day 7
Protocol: Materials and methods: For intracellular ROS measurement, melanocytes were washed with PBS and incubated with 20 μM CM-H2DCFDA (Invitrogen) for 30 min at 37° C. in the dark. The cells were resuspended with PBS and examined with flow cytometry at an excitation wavelength of 488 nm and an emission wavelength of 530 nm; the data were analyzed with FlowJo.

SLC7A11 = test: Ferroptosis regulators in melanocytes (RNA sequencing, SLC7A11 immunoblot); type: cell-based, human
Excerpt: as §1, §2

[7] = test system: human primary melanocytes (HEMn-DP); test: IFN-γ inhibition of human primary melanocyte cell viability (CellTiter-Glo); type: cell-based; conditions: 72 hrs at 37° C.
Protocol: Materials and methods: To examine the dose-dependency of IFN-γ inhibition of human primary melanocytes (HEMn-DP) cell viability, HEMn-DP cells were seeded into a 96-well plate at a concentration of 10,000 cells/well in 100 μL assay medium (M254 supplemented with 1× HMGS, 10 ng/mL PMA plus Penicillin-Streptomycin) at 37° C. for 5 hours. After seeding, 100 μL of IFN-γ serial dilutions were added, followed by incubation at 37° C. for 72 hrs. Then, cell proliferation was measured using CellTiter-Glo kit (Promega) according to the manufacturer's instructions. Luminescence was measured with an iD3 multimode reader (Molecular Devices), and data analyzed using nonlinear regression curve fit using GraphPad Prism7.

Molecule	effect on cell viability of melanocytes (individual cytokine) (primary melanocytes [1])	early phase apoptosis in melanocytes (Annexin V) (melanocytes [2])	lowest concentration at which the morphology effect is present (primary melanocytes [3]; dose-dependent effect)	morphology change in melanocyte (loss of dendrite, ballooning of cytoplasm) (primary melanocytes [3]; primary melanocytes, 7 days of treatment)	lipid peroxidation level in melanocytes (melanocytes [4])	IC50 of IFN-γ causing 50% inhibition of melanocyte melanogenesis ([5]; human primary melanocytes, 7 days, melanin content)	melanin content of melanocytes under IFN-γ ([5]; spectrophotometer)	expression of MITF (immunoblot) (MITF; melanocytes, 24 hrs of treatment)	expression of melanin regulators (MITF, MLANA, TYRP1, DCTT, TYR, TRPM1) (MITF; primary melanocyte, IFN-γ 100 ng/ml 24 hrs vs control, transcriptome)	intracellular ROS in melanocytes (melanocytes [6])	expression of ferroptosis markers SLC7A11, SLC3A2, Ferritin, GPX4 and TFR1 (RNA sequencing) (SLC7A11; 24 hrs IFN-γ)	expression of SLC7A11 (immunoblot) (SLC7A11; 48 hours incubation with IFN-γ)	IC50 of IFN-γ causing 50% inhibition of melanocyte viability [7]
B1	not CXCL9, CXCL10, or CXCL11 significantly decreases	–	–	–	–	–	–	–	–	–	–	–	–
B2	not CXCL9, CXCL10, or CXCL11 significantly decreases	–	–	–	–	–	–	–	–	–	–	–	–
B3	significantly decreases	induced early phase apoptosis; also recorded: significantly upregulate Annexin V but not 7AAD	1 ng/ml	contributes to morphology change	increased	0.392 ng/mL	decrease in melanin content in a dose-dependent manner	dose-dependently downregulates	induced downregulation of melanin regulators	significantly elevated	downregulation	dose-dependently downregulated	8.114 ng/mL
